Reference: patent publication US20180201670A1 (published 2018)
One block for each binder: values may come before it.

Legend:
[1] = biological target: T1, analyte of Example 8 (not named); assay: Biacore (SPR); analyte not named
T1 construct: Target of the Biacore run of Hu-6C1-H3bL2

pH4-treated TTR [2] = biological target: T2, pH4-treated TTR (human, UniProt P02766 21-147); assay: Sandwich ELISA (pH 4-TTR)
pH4-treated TTR [3] = biological target: T2, pH4-treated TTR; assay: ELISA; pH4-TTR captured on anti-His-coated plate, mAb 0.31-2.5 µg/ml
Description: Four lead mis-TTR mAbs (9D5, 14G8, 6C1, and 5A1) were assayed by ELISA at concentrations ranging from 0.31 to 2.5 μg/ml using both pH4.0-treated TTR (pH4-TTR) and native TTR as the coating antigen. TTR antigen preparation and ELISA protocols are described elsewhere in Materials and Methods (e-g).
Coated and blocked 96-well plates were treated with 50 μl per well of 2.5 μg/ml TTR antigen (either native TTR or pH4-TTR) for 1 hr. at room temperature. The plates were then washed two times with 250 μl per well of wash buffer (1× Tris Buffered Saline containing 0.05% Tween-20). Washed plates were then treated with 50 μl per well of the appropriate anti-TTR monoclonal antibody at concentrations ranging from of 0.31 to 2.5 μg/ml, for 1 hr.
The treated plates were washed 3 times with 250 μl perwell wash buffer. After washing, the plates were treated for 1 hr. with 50 μl per well of detection antibody comprising a 1:5,000 dilution of […] goat-anti-mouse (Jackson ImmunoResearch #115-035-164) in 1×PBS. The plate was then washed 3 times prior to the addition of 100 μl per well TMB substrate (Rockland). The HRP reaction was allowed to proceed at room temperature for 15 min. before quenching with a 50 μl per well volume of 1N […]. Spectroscopic absorbance was measured at a wavelength of 450 nm.

- Kd [1]: 1.46 nM
- koff [1]: 0.000545 s⁻¹
- kon [1]: 372000 M⁻¹ s⁻¹
B1: Hu-6C1-H3bL2 (antibody, human IgG1, kappa, V domains shown)
VH: EVQLVESGGGLVQPGGSLKLSCAASGFTFSNYYMSWVRQAPGKRLEWVAYISIDGNNIYHPDSVKGRFTISRDNAKNTLYLQMNSLKAEDTAMYYCARDSDYGYFDVWGQGTLVTVSS
VL: DIVMTQTPLSLPVTPGEPASISCRSSQSIVHSNGNTYLEWYLQKPGQSPKLLIYKVSKRFSGVPDRFSGSGSGTDFTLKISRVEAEDVGVYYCFQGSHVPLTFGGGTKVEIKR
notes: also called Hu6C1VHv3b/VLv2; humanized 6C1 heavy chain version 3b / light chain version 2

- Kd (pH4-treated TTR [2]): 257 nM
- Kd (pH4-treated TTR [3]): 282 nM
B2: 9D5 (antibody, V domains shown)
VH: EVKLVESGGGLVQPGGSLKLSCAASGFTFSSYTMSWVRQTPEKRLELVAEISNSGDTTYYPDTVKGRFTFSRDNAKNTLYLQMSSLKSEDTAMYYCARHYYYGGGYGGWFFDVWGTGTTVTVSS
VL: DIVMTQAAPSVPVTPGESVSISCRSSKSLLHSNGNTYLYWFLQRPGQSPQLLIYRVSNLASGVPDRFSGSGSGTAFTLRISRVEAEDVGVYYCMQHLEYPLTFGAGTKLELK
